How the values were obtained:
[1] = target: T1, Cyno CD33 full length, expressed on HEK293F cells (cynomolgus monkey); test: flow cytometry, HEK293F cells expressing cyno CD33
T1 construct: HEK293F cells transduced with lentivirus containing full length cyno CD33 (Genbank XP_005590138.1); also called cyCD33
Description: (§1) OMNIRat antibodies identified via immunization, v-region cloned and subsequently expressed and purified were characterized further for binding to CD33 expressing cells and binding to recombinant antigens. The purified antibodies were assessed for binding to stably transfected HEK293F cells expressing human CD33 or cyno CD33 (generation described above) along with the parental HEK293F as negative control. Cells were harvested from tissue culture flasks using non-enzymatic dissociation buffer (Thermo Scientific). The flasks were rinsed twice with PBS and dissociation buffer was added to the flask, and the flask was incubated for 10 minutes at 37° C. until the cells became non-adherent. The cells were centrifuged at 300 g for 5 minutes and resuspended at 1.0×10⁶ cells/ml in staining buffer (Becton Dickinson; Franklin Lakes, NJ). 50,000 cells/well of each cell type was plated in 50 μl of staining buffer in round bottom plates (Becton Dickinson). […] 100 μl staining buffer was added to all wells of each plate, the plates were spun at 300 g for 5 min, the buffer was removed, 200 μl staining buffer was added to all wells of each plate, the plates were spun at 300 g for 5 min, and the buffer was removed. 50 μl of 2 μg/ml of Goat-anti-human Fc AF647 secondary antibody (Jackson Immunoresearch; West Grove, PA) was added to all wells of the plates, and the plates were incubated for 30 min at 4° C. 100 μl staining buffer was added to all wells of the plates, the plates were spun at 300 g for 5 min, and the buffer was removed. 200 μl running buffer (running buffer is Staining buffer, 1 mM EDTA, 0.1% Pluronic Acid) was added to all wells of the plates, the plates were spun at 300 g for 5 min, and the buffer was removed. 30 μl running buffer containing Sytox Green live/dead dye (ThermoFisher) was added to all wells with cells and the plates were read on an iQue IntelliCyt flow cytometer. Cells were gated on forward vs. side scatter to eliminate debris, then on singlets and then on live cells which excluded the Sytox stain. Antibody binding was assessed by the mean fluorescence intensity in the AF647 channel.

[2] = target: T2, Human CD33 full length, expressed on HEK293F cells (human, UniProt P20138 18-364); test: flow cytometry, HEK293F cells expressing human CD33
T2 construct: HEK293F cells transduced with lentivirus containing full length human CD33; also called huCD33
T2 sequence (P20138 18-364 limits assumed): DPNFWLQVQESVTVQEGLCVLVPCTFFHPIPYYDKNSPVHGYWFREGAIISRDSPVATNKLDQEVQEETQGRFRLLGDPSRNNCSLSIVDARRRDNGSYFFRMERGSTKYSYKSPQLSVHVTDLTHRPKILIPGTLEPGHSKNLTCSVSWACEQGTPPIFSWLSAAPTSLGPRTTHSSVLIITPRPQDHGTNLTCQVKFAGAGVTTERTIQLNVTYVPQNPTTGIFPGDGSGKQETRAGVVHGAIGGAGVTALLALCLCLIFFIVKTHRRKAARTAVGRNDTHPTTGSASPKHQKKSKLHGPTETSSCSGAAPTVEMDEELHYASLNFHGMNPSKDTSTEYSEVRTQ
Description: as §1

Cyno CD33 ECD-HSA [3] = target: T3, Cyno CD33 ECD-HSA (cynomolgus monkey); test: SPRi off-rate screen (IBIS MX96), mAb captured by anti-human Fc; column head prints Cyno CD33 binding KD
T3 construct: Cyno CD33 extracellular domain fused to monomeric human serum albumin and a six-histidine tag; also called C33W1
Description: (§2) To begin assessing the biophysical binding properties of the purified mAbs an off-rate screen was performed. 76 OMNIRat anti-CD33 mAbs were tested for binding to recombinant human CD33 ECD-HSA (C33W2) and cyno CD33 ECD-HSA (C33W1) proteins (Janssen production) and the off-rate was measured by IBIS MX96 SPRi array platform (Carterra; Newton, PA). […] The sensor chip was transferred to the Continuous Flow Microspotter (CFM) unit to capture each anti-CD33 mAb at 10 μg/ml for 10 minutes. Binding was measured on IBIS SPRi by single cycle kinetics without regeneration. […] The raw binding data (.trix file format) were referenced and aligned using SprintX software (Wasatch, Ver 1.9.3.2), then exported (.ibmx file format) to Scrubber software (Ver. 2.0) for 1:1 binding kinetic analyses (Wasatch, version 2.0.0.33) to extract the koff results.

Human CD33 ECD-HSA [4] = target: Human CD33 ECD-HSA (human); test: SPRi off-rate screen (IBIS MX96), mAb captured by anti-human Fc; column head prints KD
Chain of Human CD33 ECD-HSA (human) (chain, as listed by the source): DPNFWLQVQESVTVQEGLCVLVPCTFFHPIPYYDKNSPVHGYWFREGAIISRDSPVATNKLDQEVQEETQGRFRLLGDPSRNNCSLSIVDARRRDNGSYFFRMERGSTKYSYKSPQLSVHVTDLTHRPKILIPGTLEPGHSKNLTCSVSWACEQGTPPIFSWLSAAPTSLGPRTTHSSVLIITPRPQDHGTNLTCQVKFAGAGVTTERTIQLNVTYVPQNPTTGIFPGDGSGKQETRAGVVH
Description: as §2

Human CD33 ECD-HSA [5] = target: Human CD33 ECD-HSA (human); test: ProteOn SPR, mAb captured by anti-human Fc, 1:1 Langmuir fit
Description: (§3) The panel of mAbs was then further characterized for full affinity analysis as well as epitope binning. The binding of anti-CD33 mAbs to recombinant human CD33 ECD-HSA (C33W2) and cyno CD33 ECD-HSA (C33W1) was measured by ProteOn SPR (Bio-Rad). […] Different mAbs were captured on the anti-human Fc IgG surface at 0.25 or 0.5 μg/ml (160-300 RU) in vertical ligand orientation, with the 6th ligand channel as no ligand surface control. Human and cyno CD33-HSA proteins at 0.3 μM concentration in 3-fold dilution series of 5 concentrations flew in as analyte to bind to captured mAbs in the horizontal orientation. A buffer sample was also injected in the 6th channel to monitor the dissociation of captured mAb and baseline stability. […] The raw biding data were processed by double referencing after subtracting the response data from: 1) the inter-spot to correct for the non-specific interactions between the Ag and the empty chip surface; 2) the buffer channel to correct for baseline drifting due to the dissociation of captured mAb surface over time. The processed data at all antigen concentrations for each mAb were globally fit to a 1:1 simple Langmuir binding model to extract estimates of the kinetic (kₒₙ, koff) and affinity (Kd) constants.

Cyno CD33 ECD-HSA [6] = target: T3, Cyno CD33 ECD-HSA; test: as above
Description: as §3

MFI at 0 nM mAb (background) [1] [MFI] | MFI at 0.6 nM mAb [1] [MFI] | MFI at 6 nM mAb [1] [MFI] | MFI at 60 nM mAb [1] [MFI] | MFI at 0 nM mAb (background) [2] [MFI] | MFI at 0.6 nM mAb [2] [MFI] | MFI at 6 nM mAb [2] [MFI] | MFI at 60 nM mAb [2] [MFI] | koff (Cyno CD33 ECD-HSA [3]) [s⁻¹] | koff (Human CD33 ECD-HSA [4]) [s⁻¹] | Kd (Human CD33 ECD-HSA [5]) [nM] | koff (Human CD33 ECD-HSA [5]) [s⁻¹] | kon (Human CD33 ECD-HSA [5]) [M⁻¹ s⁻¹] | Kd (Cyno CD33 ECD-HSA [6]) [nM] | koff (Cyno CD33 ECD-HSA [6]) [s⁻¹] | kon (Cyno CD33 ECD-HSA [6]) [M⁻¹ s⁻¹] | Binder
107 | 1600 | 8210 | 13600 | 79.8 | 5310 | 38700 | 199000 | 0.00183 | 0.00671 | 21.4 | 0.0105 | 489000 | 2.21 | 0.00162 | 734000 | C33B61 (antibody, V domains shown, huIgG1 F405L; also called C33F66; C33H48/C33L58) VH: QLQLQESGPGLVKPSETLSLTCTVSGGSIRSTNYYWGWIRQPPGKGLEWIGTIYYSGNTYYNPSLKSRVTISVDTSKNQFSLKLSSVTAADTAVYYCARLADVVVVPAARYFDYWGQGILVTVSS VL: not shown
61.1 | 3230 | 10400 | 10700 | 71 | 8860 | 88200 | 224000 | 0.00274 | 0.0103 | 14.8 | 0.0152 | 1.02e+06 | 2.69 | 0.00339 | 1.26e+06 | C33B123 (antibody, IgG1, V domains shown, huIgG1 F405L; also called C33F128; C33H91/C33L44) VH: QLQLQESGPGLVKPSETLSLTCTVSGGSISSRSHYWGWIRQPPGVGLEWIGSIYYTGSTYYNPSLKSRVTISVDTSKNQFSLKLSSVTAADTAVYYCARLADIVVVPAARYFDYWGQGTLVTVSS VL: not shown
934 | 1920 | 5620 | 12700 | 75 | 6090 | 37400 | 158000 | 0.00132 | 0.01 | 24.9 | 0.0126 | 507000 | 1.85 | 0.00149 | 805000 | C33B62 (antibody, IgG1, V domains shown, huIgG1 F405L; also called C33F67; C33H49/C33L59) VH: QLQLQESGPGLVKPSETLSLTCTVSGGSIRSSGFYWGWIRQPPRKGLEWIGTIYYSGNTYYNPSLKSRVTISVDTSKNQFSLKLSSVTAADTAVYFCARLADVVVVPAARYFDNWGQGTLVTVSS VL: not shown
94 | 43400 | 47300 | 56500 | 91.1 | 391000 | 429000 | 401000 | 0.00012 | 5.47e-05 | 0.0112 | 1.82e-05 | 1.62e+06 | 0.0366 | 0.000158 | 4.31e+06 | C33B48 (antibody, IgG1, V domains shown, huIgG1 F405L; also called C33F53; C33H80/C33L73) VH: QVQLVQSGSELRKPGASVKVSCKASGYTFTNYAMNWVRQAPGQGLEWMGWINTNTGNPTYAQGFTGRFVFSLDTSVSSAYLQISSLKAEDTAMYYCATDRDRGTDYWGQGTLVTVSS VL: QSALTQPASVSGSPGQSITISCTGTSSDVGDYNYVSWYQQHPGKVPKLMIYDVSNRPSGVSNRFSGSMSGNTASLTISGLQAEDEADYYCSSYSSSSALEVFGGGTKLTVL
92 | 49700 | 49800 | 49800 | 135 | 418000 | 448000 | 510000 | 0.000148 | 0.000467 | 1.38 | 0.00199 | 1.45e+06 | 0.126 | 0.000375 | 2.97e+06 | C33B46 (antibody, IgG1, V domains shown, huIgG1 F405L; also called C33F51; C33H108/C33L74) VH: QVQLVQSGSELKKPGASVKVSCKASGYTFSTYAMNWVRQAPGQGLEWMGWINTNTGNPTYAQGFTGRFVFSLDTSVSTAYLQISSLKAEDTAVYYCARDRDRGTDYWGQGTLVTVSS VL: QSALTQPASVSGSPGQSITISCTGTSSDVGDDNYVSWYQQHPGKAPKLMIYDVSNRPSGVSNRFSGSKSGNTASLTISGLQSEDEADYYCSSYSSSTTLEVFGGGTKLTVL
82.5 | 5840 | 13900 | 19700 | 65 | 14300 | 84300 | 259000 | 0.00145 | 0.00874 | 9.53 | 0.00712 | 747000 |  |  |  | C33B122 (antibody, IgG1, V domains shown, huIgG1 F405L; also called C33F127; C33H92/C33L30) VH: QLQLQESGPGLVKPSETLSLTCTVSGGSIRSSSYYWGWIRQPPGKGPEWIGSIYSSGNTYYNPSLKSRVTISVDTSKNQFSLKLISMTAADTAVFYCARLAATIVVPAARYFDCWGQGTLVTVSS VL: SYELTQPPSVSVSPGQTVSISCSGDRLGDKYACWYQQKPGQSPVLVIYQDSKRPSGIPERFSGSNSGNTATLTISGTQAMDEADYYCQAWDSSSYVFGTGTKVTVL
78 | 42200 | 49100 | 48900 | 130 | 56600 | 313000 | 445000 | 9.33e-05 | 0.000859 | 52.9 | 0.00203 | 38500 | 0.217 | 0.000266 | 1.22e+06 | C33B66 (antibody, IgG1, V domains shown, huIgG1 F405L; also called C33F71; C33H55/C33L42) VH: QVQLQESGPGLVKPSGTLSLTCAVSGGSISSSNWWSWVRQPPGRGLEWIGEIYHSGNTNNSPSLKSRVTISADKSKNQFSLKLSSVTAADTAVYFCARIIAVARYFDSWGQGTLVTVSS VL: SYVLTQPPSVSVAPGQTARITCGGNNIGIKSVHWYQQKPGQAPVLVVYDDSDRPPGIPERFSGSNSGNTATLTITRVEAGDEADYYCQVWDSSSDHVVFGGGTKLTVL
79.7 | 18000 | 46100 | 48000 | 70.1 | 35500 | 205000 | 269000 | 0.000106 | 0.000398 | 6.64 | 0.00108 | 162000 | 1.2 | 0.000269 | 225000 | C33B101 (antibody, V domains shown, huIgG1 F405L; 260 is used; also called C33F106; C33H69/C4LL152) VH: QLQLQESGPGLVKPSETLSLTCTVSGGSISSSSYYWGWIRQPPGKGLDWIGSINYSGSTYYNPSLKSRVTISVDTSKIQFSLKLRSVTAADTAVYYCARLDGYESPFDYWGQGTLVTVSS VL: DIQMTQSPSSVSASVGDRVTITCRASQGISSWLAWYQQKPGKAPKLLIYAASSLQSGVPSRFSGSGSGTDFTLTISSLQPEDFATYYCQQANSFPFTFGPGTKVDIK
